Measured values reported in the DeepSol protein solubility set.

assay: soluble on expression in E. coli; label from the status in PepcDB or PDB records

Row | Sequence | soluble on expression in E. coli
1 | MENFAEIVGIGPAGVISITGGGGKTSLMFHLARQLAYSGKRVLTTTTTKILAPSVEESRTLLISQDPQVILRHAKAHPGPGVHVSAAAGHIPHTEKLQGFPREAIRTFEDSGEFDWVVVEADGAARKPLKAPAAHEPVIPGNSTIVVALAGLEVLGRPLGEEMVFRSELAGELMQIPQGETITVPALARLLAHPSGGFKGAPPQARRFIFLNKADTPELQEKGGEVALQLKEIAPSVAEAVIVGQLRQEITLHRVYPRGELEHHHHHH | soluble
2 | SAARRALKAVLVDLNGTLHIEDAAVPGAQEALKRLRATSVMVRFVTNTTKETKKDLLERLKKLEFEISEDEIFTSLTAARNLIEQKQVRPMLLLDDRALPEFTGVQTQDPNAVVIGLAPEHFHYQLLNQAFRLLLDGAPLIAIHKARYYKRKDGLALGPGPFVTALEYATDTKAMVVGKPEKTFFLEALRDADCAPEEAVMIGDDCRDDVDGAQNIGMLGILVKTGKYKAADEEKINPPPYLTCESFPHAVDHILQHLL | soluble
3 | MQRIETRKVKVGSVYVGGDSRVTVQSMTNTDTRDSKKTIEQIKKLEIAGCDIVRCAVPDFDAASSLSEITKNVKLPVVADIHFDYRLALEAIKNGVSALRINPGNIGSKERVELVAKSAKEKNIPIRIGVNSGSLEKDILNKYKRVCSEALVESALNHVKILEDVNFNDIVISIKSSNVQMMIDSYRLISKEVNYPLHLGVTEAGTIWRGTIKSSIGIGTLLSEGIGDTIRVSLTGDPVEEVKVGREILKTFGYLKSGVEFISCPTCGRTSIDLIKIANEVEKRLEKTNKSIKVAVMGCVVNGPGEAREADIGIAGGKGEGLIFKKGEIIKKVKEENLVDELMREIDNMLEHHHHHH | not soluble
4 | MVIMSSTFMGYERENGRIGTRNHVLIIPVDDLSNTVAAAVENNIFGTRAILHPYGRLQFGADLDLTFRTLAGYGRNPNVASAIVVGIEDNWTNRIADQISQTGKHVETVSIEGSGDLKAIEKASRLAKEMAQESSTKTRKEFDVSNLIVSTKCGESDTTSGLASNPTVGVVFDRLVDEGATVIFGETSELTGAEKYIAEKMANNELKDKFMKIFNDYQDVIKSQGVDLLGSQPTEGNIKGGLSTIEEKALGNIQKAGTKKITGVLDYAEEPKSKGLNFMNTSSAAAEAVTLFAAAGAVVHLFTTGQGNIVGNHILPVIKTTANPKTAKNMAEHIDLDLSGLLKFEYTLKDAGDKLYNLLLETASGKLTSNEVLKHYEFALTKLYISA | not soluble
5 | FPVETVQIPVNDEYAVHGWLAHGMSGHGAVLLVHSMRSNRLEMLGRARFLNNQGYHVLMIDLQAHGETPGDRITFGARESADVAAAVGYLRSTFPHDRIAAIGATLGAAAIVLANPPLKLDAMILESLHPTFAEAVANRLKLHLGNTGEYLQFLLLPYFSFLLDLPVNQLNPVDRIGNIAIPVLFIAGTLDRHTTQSEVKRLYDAALPPKELWIVEGAGHYNMHTFAGKSYEMQIADFLSTYL | not soluble
6 | RTYGDGTKPQTDRVVGGLVVEYDITENIMVSAHYDRTKDEGSVDSGAYIVDGKPVRGDKYIWDAQWSKIDNDVENYGIDINAQVTDNVNVKAGYNRQDFKRFDVESYPKFDNYDKDGVIRHKGNERTDNWVFDTAYLDVTTNFSLLGTENTFLVGANYLDYKYDRFMASHAGEDVAAGTTVTRPGTVRSKKYPRREHDTWGIYAQNMMTINDYWQVLAGARYDEKREDSLTENQVSPKLGVIFHPTSNGSIYVQYSESFMPQGEVSNGSRIYINDGEKLDAERGISYEIGTKWELFDQRLFVSGAVFDITLENISLDVESGKDASNQLLHKKTQGGEQVHKGAELMAQGFVTPELSLTASAMYLDAELKKAERFEGNRPADVPEFSASLWSSYRVQDNTNLNLGLIYEGDRYGDAANTFKKDGYARIDMGVSYKHKYDENLDIIARFNVENLFDTDYLAGGGSTNGNQEGASGVVVGEGRNYMATIQFKY | not soluble
7 | MSLKVGVALSGGVDSAVALYLLLKEGHEVKAFHMKTKEDEFFIKKEIKKKVCCSPSDTADAMRIAHFLGVEIEIVDVKEIFREKVIEPFKRDLLKGLTPNPCAHCNRFVKFGYLMDYVLNQGFDAFASGHYARIEFSEKYGRKVIKKGVDLKKDQSYFLARIEPWRIERLIFPNGIYTKEEIRKIAEEAGIHVAKKQESQDVCFIPDGSIENFLKDEGITLKDGDIITPEGEVVGRHFGYPLYTIGQRKGFKIEKFGRRYYVRGKIPEKNVVVVSDLEDVFFSGLIAEDPVWHVEVPEEFRCVCRVRKKSEEAPAVVKVKDNEVEVSFEKKVFAVTPGQIAAFYDGDTLLGGAIIKEGIREGHHHHHH | soluble
8 | MSGALKENSGKPSEVEYTHFKDLQALEMERGRLYETIVVTWDDSMVGNAAPIGVLCTGDDTVTLYLYQGTRTVENVLNNGRFTVNVTLDPLIFTDSTLGDLEEDMFSHYRDFLHLRGADAFFTAEVVSVKKLVKRDRFGESELHVVKARAGDVMRAESFRMALNRGIYAVIESLIAYTRAEFSDPLVLRERIAEMNRVARKVGGPREKEAMRRIIQALESKIS | not soluble
9 | PSTVSHFMAFNPKNDVLNQRTIREAISKSIDAKDIAGKSVNGLFQKNVQFVTKNNQQPHDYDMKAAERLLKSEGYHKNDDGIFEKNGKPLSFNLVIQTAEFPNWKDKAEKVQRQLKQAGIKLNVKTLDSQSYYDTLWTKKDYDLIFYRTYSDALMPYNFISSVFKNNDGQPGVLADDETLTKQLDDFPSTVSKEDQQCSFDDIFKHFNQQYYGVPIAYPNETFVVSDKV | soluble
10 | MGSDKIHHHHHHMSNFLLEAGRQTLMLELQEASRLPERLGDDFIRAAETIIHCEGKLIVSGIGKSGHIGKKLAATFASTGTPAFFVHPAEALHGDLGMLDSRDVMLFISYSGSAKELDLIVPRLEEKGIPLLAMTGKSTSPLALAAKAVLDIAVEREACPMHLAPTSSTVNTLMLGDALAMAVMQARGFNEEDFARSHPAGALGARLLNKVHHLMRRDEEVPRVNTEANVMDAMLELSRTGLGLVAVCDEANRVQGVFTDGDLRRWLVAGGTLNDGVTRAMTRNGVTLQADSRAVEAKERLMKHKISAAPVVDENGQLVGAINLQNFYQAGIL | not soluble
11 | MGSDKIHHHHHHDAGAPAFLSAGRVADGAYNLYGLDRRGRPLFHLPIPDRGHAAAAHPQRAEAVAFARRPGRFALVLNCVSGAEIARLSAPEGRHFYGHGAFDAEGRVLFTTENDYEAGQGRIGLWDAGAGYRRIGEVASGGVGPHDIRLMPDGQTLVVANGGVETHPDTGRVKLNLPVMQPNLSYLSLAGEVLEVVRMPPEHRMNSIRHLDLRADGLVAFAMQWQGEGTELRPVLGLHRRGTAPVAVTGNEAEMRAMNGYGGSVIFYDQGRRVAVSSPRGGIVQLSDVAAGRIIGGVAITDVCGLGVTGGGLVASSGSGVFTRVGGKEASRSEIAWDNHLVAVNRA | not soluble
12 | MGSDKIHHHHHHMSQAPYFVPRAPYAEDPSKSKGRRFKEDESRTRTPFARDRDRIIHTSAFRRLKEKTQVFVAHEGDNFRTRLTHTLEVAQVARSLATALGLDADLAETIALAHDLGHPPFGHAGEDELEIQMREYGGFDHNVQTFRVVTELEHRYPDFIGLNLTWETLEGVIKHNGPVTNKLGKPSWKAISKYDNEYELGLGTWASAEAQVAALADDIAYNNHDVDDGVTAGLFTLDDLMDVPLIGPILAAVKSERPDLDARLTHLEAVRRMIGAMVDDVMGETLHRAAASGVQSADDVRALDHALVAFSSDMAEDLARLRGFLYERMYRHWRVNRTRSQARRILGEMFALFLREPEVLPTVWFAKSQNRDEAGRARVVCDYIAGMTDRFAIEEHRKLFHLDVWN | not soluble
13 | MKRFAFFDVDDTLITVKSMFDFFRYWTLEWRRESAALEAFEREFSQLRAAGESRENLNRAYYRYFAGIRSEDIERAGAAWASAWLAHPERFFIAAPVHLLRELSADGVEPVFVSGSFDAVLRPIADHLSVTNILAAPLELRADGCYTGRIGTPQTIGAGKAVAIRNFLSEQKVRADVCLAVGDDISDLPMLQSVGTAVVVGEHPQLTEIADARSWRRLPAMAE | not soluble
14 | SSVLRSMDKLPDLNRATVLLVSTEDALLQQLAESMLKDDCASELRVHLANSLPLPSNVNRPRIDLIVFVINLHSKYSLQKVEEFLQHVDSSFFLGKVCFLVTGAGQESHCSVHQNTVIKLAHTYRSPLFLCDLQKVESFRAAMARRLVRILQICAGHVPGVSALNLMSLLRSPENPPSKEL | soluble
15 | DEIVMDANAVLGPVDPQLGNFPAASILKVVKDKPIGEIDDQTLIMADLAGKAIQQVQRFVRTLLKDNIPKQKVNPENIESIIEALTTGRVTHDYPITVEEATEMGLPITVGLPRSIYELMDLYPQSQGGRPSVQYIPMPYDDRRPIL | not soluble
16 | MGSDKIHHHHHHMISMKIQQILPADPAKAILIGRIWDPVSQGPRVVSVRGEDVFDLSPGVRTVAELMEYENPLEVVLQRTDAPRWDLAEIVEASQGTDRNRPHLLAPIDLQVVKACGVTFVESMIERVIEERCGGDFTRAAEVRKAVADVLGGSLDSVRPGSEQAREAKRILSAQGMWSQYLEVGLGPDPEVFTKAPVLSSVGYGSGVGIPSFSSWNNPEPELVLILNSAGDPLGATLGNDVNLRDVEGRSALLLGMAKDNNASCAIGPLIRLFHKDFTLESLRTEEITLTVEGTDGYRMEGRNSVARISRSFEELIKAAHGSHHQYPDGFALFTGTLFAPTQDRDTEGLGFTHKNGDIVTISSPQLGTLINQTQSTEETEPWTFGITALFRYLAQTGTGGAPSITGSPVSAAPGKSAGMKIGFRN | not soluble
17 | GPGSFIDPPSDQGMSDAFYQLLYFGAVDDGLQLTDFGRRMAVLPVDVCLARMLLMAPKHGCGADAAVVAAMLEAGNAFSRPPSRLAEAREAHARFDNADGDHVALFRVFHAYFKNQQNGKRFCYENYLRHQTLQQAVQVYKQLRRLMSQLMIPVQSTYIPEREYVDTVALRKAVLEGFFTQVAFLTPVAPITH | not soluble
18 | MGKRVLIVDDATNGREAVEKYKELKPDIVTMDITMPEMNGIDAIKEIMKIDPNAKIIVCSAMGQQAMVIEAIKAGAKDFIVNTAAVENPSLITQIAQTFGSQAVVVAIDAKRVDGEFMVFTYSGKKNTGILLRDWVVEVEKRGAGEILLTSIDRDGTKSGYDTEMIRFVRPLTTLPIIASGGAGKMEHFLEAFLAGADAALAASVFHFREIDVRELKEYLKKHGVNVRLEGLLEHHH | soluble
19 | MGSDKIHHHHHHMATNTGHSNPKEALTFMNAPQLDIHQPRIAAFFDLDKTIIATSSALAYGREFMHSGLITPAEALQMSMAKATYMFSGYSSEQMDHTKNQLAHLITGWSEEQVREIANDTLQSVVAPAIYAEARDLIHMHQETGHDVVIISASARILVEAIAAELGVDQVVATELTVVDGKFTGEVPFYCKGAAKAQAILDLTDKRGYQLDRSFAYSDSITDLPMLEAVGNPRAVNPDRALKKVALDRDWEIHTFKNPVALFSKPTKRDLQISTGVAAGVAAVVGSVMWWKSLNGRSDRLRLSCTRDPGTQM | not soluble
20 | MKLTTLGSWGAYPYQDAGTTSYLVTGHDGFQLLMDAGSRALNELEKEISPLDLDAVIISHYHPDHVADLGVLRHYFQLYPKHLWQPKVLPIYGHDEDRNEFAKLSIPDVSEGRAYDVTGVEQIGSFDITFLKTVHPVVCYAFRIVERATGQVLVFTGDSGYFEGLADFAKEADLFLADVYLYEGNENHMAHLTSKEAGLMASQAGVKKLVLTHMPPVPPDGINSKNHLEVLRQETQAYAGNIPVDLALPHKSWNLGSLS | not soluble
21 | MIMNIFLIKEADLVEAAEIISASFKNYEVMRYLFNDSGNDHEAHITEFFLAFYQFGLANNWPCYGVRVNEQWVAVALGCNSSEQEIIKGSDDALTEFYKKISPQACCRIEQYDQQADAAHPSKAHFFIDSIGTHPDHQGKGYAKALILKFQELSKSDVHSTGVGLNTESDNNINFYQHLGYQVKAQQKIGSLTSWSLFRTDD | not soluble
